Assay results taken from IntAct's records for PubMed 28490631.

B1: Triggering receptor expressed on myeloid cells 2 (Homo sapiens), Q9NZC2 (parent)
chain: MEPLRLLILLFVTELSGAHNTTVFQGVAGQSLQVSCPYDSMKHWGRRKAWCRQLGEKGPCQRVVSTHNLWLLSFLRRWNGSTAITDDTLGGTLTITLRNLQPHDAGLYQCQSLHGSEADTLRKVLVEVLADPLDHRDAGDLWFPGESESFEDAHVEHSISRSLLEGEIPFPPTSILLLLACIFLIKILAASALWAAAWHGQKPGTHPPSELDCGHDPGYQLQTLPGLRDT

Variants of: B1
Conditions: with tyobp_human TYROBP

Row | Variant | effect of a mutation on the interaction
1 | S116C | with no effect
2 | T66M | with no effect

Variants of: B1
Conditions: with tyobp_human TYROBP
Remark: another data set of the same source

Row | Variant | effect of a mutation on the interaction
3 | T66M | increasing interaction strength
4 | R47H | with no effect
